Laboratory results as given in PMC12921663, “NanoBondy Reaction through NeissLock Anhydride Allows Covalent Immune Cell Decoration” (Bioconjugate Chemistry, 2026).

Key:
[1] = molecular target: T1, endogenous human CD45 at the cell surface (Homo sapiens, UniProt P08575-4); assay: flow cytometry on cells; nanobodies incubated with Expi293F, NK92 or YTS cells; detected with anti-VHH-Alexa Fluor 647; conditions: one partner purified
T1 construct: CD45, human, endogenous; also called CD45RO; source: endogenous, on YTS and NK92 cells and on primary human CD8+ T cells

[2] = molecular target: T2, CD45d1d2 (d1 and d2 domains of human CD45 linked to an AviTag) (Homo sapiens, biotin (site-specific, on the AviTag); N-linked glycosylation); assay: ELISA; nanobodies coated on a plate, incubated with the indicated concentrations of biotinylated CD45d1d2; colorimetric detection (absorbance at 450 nm); conditions: both partners purified
T2 construct: CD45, human, extracellular domains d1 and d2; Construct limits may stand in the Supporting Information; also called biotinylated human CD45 domains 1 and 2; source: Expi293F cells, purified
T2 chain: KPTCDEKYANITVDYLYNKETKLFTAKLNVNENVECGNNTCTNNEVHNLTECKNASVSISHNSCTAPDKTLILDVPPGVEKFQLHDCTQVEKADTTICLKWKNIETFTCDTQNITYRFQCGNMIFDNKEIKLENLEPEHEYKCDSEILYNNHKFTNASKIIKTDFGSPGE

T1 sequence (P08575 other isoform, or with tags, fused parts or gaps): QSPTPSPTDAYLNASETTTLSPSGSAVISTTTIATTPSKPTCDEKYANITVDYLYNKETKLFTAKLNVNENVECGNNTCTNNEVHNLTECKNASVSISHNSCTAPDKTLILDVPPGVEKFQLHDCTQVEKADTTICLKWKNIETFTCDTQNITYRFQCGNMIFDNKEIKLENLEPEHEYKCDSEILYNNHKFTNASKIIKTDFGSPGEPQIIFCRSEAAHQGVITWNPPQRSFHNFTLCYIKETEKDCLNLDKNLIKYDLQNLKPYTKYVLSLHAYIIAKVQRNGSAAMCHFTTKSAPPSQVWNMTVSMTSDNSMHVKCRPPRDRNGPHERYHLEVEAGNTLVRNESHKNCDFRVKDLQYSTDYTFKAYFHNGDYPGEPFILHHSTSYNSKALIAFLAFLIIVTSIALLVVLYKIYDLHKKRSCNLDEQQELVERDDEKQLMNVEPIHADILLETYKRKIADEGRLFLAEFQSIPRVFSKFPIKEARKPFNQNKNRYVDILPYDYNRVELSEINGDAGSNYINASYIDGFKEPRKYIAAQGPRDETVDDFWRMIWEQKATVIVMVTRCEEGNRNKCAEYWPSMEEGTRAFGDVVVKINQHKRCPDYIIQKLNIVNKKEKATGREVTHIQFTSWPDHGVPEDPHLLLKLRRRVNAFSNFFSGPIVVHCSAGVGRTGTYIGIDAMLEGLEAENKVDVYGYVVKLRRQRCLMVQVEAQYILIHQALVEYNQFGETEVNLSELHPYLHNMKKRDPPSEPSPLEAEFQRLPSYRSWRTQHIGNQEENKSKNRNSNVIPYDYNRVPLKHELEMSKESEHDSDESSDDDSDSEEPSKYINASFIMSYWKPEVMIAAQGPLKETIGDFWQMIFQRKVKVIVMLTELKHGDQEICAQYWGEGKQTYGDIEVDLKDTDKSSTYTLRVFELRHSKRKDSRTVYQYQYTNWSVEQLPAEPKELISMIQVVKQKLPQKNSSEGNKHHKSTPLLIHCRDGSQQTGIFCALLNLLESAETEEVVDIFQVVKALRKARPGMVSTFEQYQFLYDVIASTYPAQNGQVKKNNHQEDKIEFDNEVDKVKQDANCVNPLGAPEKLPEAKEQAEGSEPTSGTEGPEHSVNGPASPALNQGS

binding result [1]: binds | binding result [2]: binds
B1: anti-CD45 nanobody 2H5 (VHH)
VHH: QVQLQESGGGLVQTGGSLTLSCVASGGTFSSYAMGWFRQAPGKEREFVAAIGGSGDSTYYADSVKGRFTISRDNAKNSVYLQMNSLKPEDTAVYYCQADPTMFHKLYYGINPNEYDYWGQGTLVTVSS
notes: VHH 2H5 against the d1d2 region of human CD45, from llama immunization; the source of the nanobodies is a cited earlier work
